Experimental findings from patent CN111793131A are described below.

In assay [1] the target is PF4全抗原 (血小板因子4, platelet factor 4) (Homo sapiens (Human)) (UniProt P02776). The assay can be described thus: chemiluminescent ELISA, antigen coated at 2ug/ml, 2ul antibody, HRP goat anti-mouse IgG, luminol (blank 3280). (In general: ELISA stands for enzyme-linked immunosorbent assay.)
Assay [2] has the same target. The assay can be described thus: chemiluminescent ELISA, antigen coated at 2ug/ml, 50ul antibody, HRP goat anti-mouse IgG, luminol (blank 3280).
Assay [3] has the same target. The assay can be described thus: chemiluminescent ELISA, antigen coated at 2ug/ml, 10ul antibody, HRP goat anti-mouse IgG, luminol (blank 3280).

Sequence of UniProt P02776 (P02776 32-101 limits assumed): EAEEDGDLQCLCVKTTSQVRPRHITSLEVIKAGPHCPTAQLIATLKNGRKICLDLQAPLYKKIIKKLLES

B1: 单克隆抗体AntiPF4_N (杂交瘤来源, 实施例1) (antibody, V domains shown)
VH: EVKLEESGGGLVQPGGSMKLSCVASGFTFSNYWMNWVRQSPEKGLEWVAEIRLKSNNYATHYAESVKGRFTISRDDSKSSVYLQMNNLRAEDTGIYYCTGYDFDYWGQGTTLTVSS
VL: DVVMTQTPLSLPVSLGDQASISCRSSQSLVHNYGNTFLHWYLQKPGQSPKLLIYSTSNLFSGVPDRFSGSGSGTDFTLKISRVEAEDLGVYFCSQSTHVPPTFGGGTKLEI
As to B1, the 发光值 was found to be 63000 in assay [1], 994000 in assay [2] and 256000 in assay [3].
